Laboratory results taken from the RNAGym collection of RNA variant scans (doi:10.1093/molbev/msab373).

B1: Azoarcus group I ribozyme (parent)
chain: GUGCCUUGCGCCGGGAAACCACGCAAGGGAUGGUGUCAAAUUCGGCGAAACCUAAGCGCCCGCCCGGGCGUAUGGCAACGCCGAGCCAAGCUUCGGCGCCUGCGCCGAUGAAGGUGUAGAGACUAGACGGCACCCACCUAAGGCAAACGCUAUGGUGAAGGCAUAGUCCAGGGAGUGGCGAAAGUCACACAAACCGG

Variants of: B1
Assay: reverse-splicing fitness (ratio to wild type); higher = more active; in vitro selection; Mg2+ level not given
Outline: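 An in vitro group I ribozyme library with randomized positions was T7-transcribed and gel-purified. In triplicate, 10 pmol RNA in EPPS pH 7.5 was reacted with 50 pmoles of a 30-nt RNA substrate for 1 h at 37 °C across several added MgCl2 levels (1–48 mM), then stopped with EDTA. Products were reverse transcribed from a substrate-complementary primer, PCR-amplified and sequenced (HiSeq 4000). Fitness is a variant's read proportion after selection over that before, normalised to wild type.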

Row | Variant | reverse-splicing fitness
1 | GUGCCUUGCGCCGGGAAACCACGCAAGGGAUGGUGUCAAAUUCGGCGAAACCUAAGCGCCCGCCCGGGCGUAUGGCAACGCCGAGCCAAGCUUCGGCGCCUGCGCCGAUGGAGGUGUAGAGACUAGACGGCACCCACCUAAGGCAAACGAUAUGGUGAAGGCAUAGUCCAGGGAGGGGCGAAAGUCACACAAACCGG | 0.103
2 | GUGCCUUGCGCCGGGAAACCACGCAAGGGAUGGUGUCAAAUUCGGCGAAACCUAAGCGCCCGCCCGGGCGUAUGGCAACGCCGAGCCAAGCUUCGGCGCCUGCGCCGAUGGAGGUGUAGAGACUAGACGGCACCCACCUAAGGCAAACGAUAUGGUGAAGGCAUAGUCCAGGGAGCGGCGAAAGUCACACAAACCGG | 0.264
3 | GUGCCUUGCGCCGGGAAACCACGCAAGGGAUGGUGUCAAAUUCGGCGAAACCUAAGCGCCCGCCCGGGCGUAUGGCAACGCCGAGCCAAGCUUCGGCGCCUGCGCCGAUGGAGGUGUAGAGACUAGACGGCACCCACCUAAGGCAAACGAUAUGGUGAAGGCAUAGUCCAGGGAGAGGCGAAAGUCACACAAACCGG | 0.275
4 | GUGCCUUGCGCCGGGAAACCACGCAAGGGAUGGUGUCAAAUUCGGCGAAACCUAAGCGCCCGCCCGGGCGUAUGGCAACGCCGAGCCAAGCUUCGGCGCCUGCGCCGAUGGAGGUGUAGAGACUAGACGGCACCCACCUAAGGCAAACGGUAUGGUGAAGGCAUAGUCUAGGGAGUGGCGAAAGUCACACAAACCGG | 0.0227
5 | GUGCCUUGCGCCGGGAAACCACGCAAGGGAUGGUGUCAAAUUCGGCGAAACCUAAGCGCCCGCCCGGGCGUAUGGCAACGCCGAGCCAAGCUUCGGCGCCUGCGCCGAUGGAGGUGUAGAGACUAGACGGCACCCACCUAAGGCAAACGGUAUGGUGAAGGCAUAGUCAAGGGAGUGGCGAAAGUCACACAAACCGG | 0.0114
6 | GUGCCUUGCGCCGGGAAACCACGCAAGGGAUGGUGUCAAAUUCGGCGAAACCUAAGCGCCCGCCCGGGCGUAUGGCAACGCCGAGCCAAGCUUCGGCGCCUGCGCCGAUGGAGGUGUAGAGACUAGACGGCACCCACCUAAGGCAAACGGUAUGGUGAAGGCAUAGUCGAGGGAGUGGCGAAAGUCACACAAACCGG | 0.0138
7 | GUGCCUUGCGCCGGGAAACCACGCAAGGGAUGGUGUCAAAUUCGGCGAAACCUAAGCGCCCGCCCGGGCGUAUGGCAACGCCGAGCCAAGCUUCGGCGCCUGCGCCGAUGGAGGUGUAGAGACUAGACGGCACCCACCUAAGGCAAACGAUAUGGUGAAGGCAUAGUCUAGGGAGUGGCGAAAGUCACACAAACCGG | 0.0262
8 | GUGCCUUGCGCCGGGAAACCACGCAAGGGAUGGUGUCAAAUUCGGCGAAACCUAAGCGCCCGCCCGGGCGUAUGGCAACGCCGAGCCAAGCUUCGGCGCCUGCGCCGAUGGAGGUGUAGAGACUAGACGGCACCCACCUAAGGCAAACGUUAUGGUGAAGGCAUAGUCCAGGGAGUGGCGAAAGUCACACAAACCGG | 0.905
9 | GUGCCUUGCGCCGGGAAACCACGCAAGGGAUGGUGUCAAAUUCGGCGAAACCUAAGCGCCCGCCCGGGCGUAUGGCAACGCCGAGCCAAGCUUCGGCGCCUGCGCCGAUGGAGGUGUAGAGACUAGACGGCACCCACCUAAGGCAAACGGUAUGGUGAAGGCAUAGUCCAGGGAGUGGCGAAAGUCACACAAACCGG | 0.363
10 | GUGCCUUGCGCCGGGAAACCACGCAAGGGAUGGUGUCAAAUUCGGCGAAACCUAAGCGCCCGCCCGGGCGUAUGGCAACGCCGAGCCAAGCUUCGGCGCCUGCGCCGAUGGAGGUGUAGAGACUAGACGGCACCCACCUAAGGCAAACGGUAUGGUGAAGGCAUAGUCAAGGGAGCGGCGAAAGUCACACAAACCGG | 0.0111
11 | GUGCCUUGCGCCGGGAAACCACGCAAGGGAUGGUGUCAAAUUCGGCGAAACCUAAGCGCCCGCCCGGGCGUAUGGCAACGCCGAGCCAAGCUUCGGCGCCUGCGCCGAUGGAGGUGUAGAGACUAGACGGCACCCACCUAAGGCAAACGGUAUGGUGAAGGCAUAGUCAAGGGAGAGGCGAAAGUCACACAAACCGG | 0.0101
12 | GUGCCUUGCGCCGGGAAACCACGCAAGGGAUGGUGUCAAAUUCGGCGAAACCUAAGCGCCCGCCCGGGCGUAUGGCAACGCCGAGCCAAGCUUCGGCGCCUGCGCCGAUGGAGGUGUAGAGACUAGACGGCACCCACCUAAGGCAAACGGUAUGGUGAAGGCAUAGUCAAGGGAGGGGCGAAAGUCACACAAACCGG | 0.00557
13 | GUGCCUUGCGCCGGGAAACCACGCAAGGGAUGGUGUCAAAUUCGGCGAAACCUAAGCGCCCGCCCGGGCGUAUGGCAACGCCGAGCCAAGCUUCGGCGCCUGCGCCGAUGGAGGUGUAGAGACUAGACGGCACCCACCUAAGGCAAACGGUAUGGUGAAGGCAUAGUCGAGGGAGAGGCGAAAGUCACACAAACCGG | 0.00723
14 | GUGCCUUGCGCCGGGAAACCACGCAAGGGAUGGUGUCAAAUUCGGCGAAACCUAAGCGCCCGCCCGGGCGUAUGGCAACGCCGAGCCAAGCUUCGGCGCCUGCGCCGAUGGAGGUGUAGAGACUAGACGGCACCCACCUAAGGCAAACGGUAUGGUGAAGGCAUAGUCGAGGGAGCGGCGAAAGUCACACAAACCGG | 0.00463
15 | GUGCCUUGCGCCGGGAAACCACGCAAGGGAUGGUGUCAAAUUCGGCGAAACCUAAGCGCCCGCCCGGGCGUAUGGCAACGCCGAGCCAAGCUUCGGCGCCUGCGCCGAUGGAGGUGUAGAGACUAGACGGCACCCACCUAAGGCAAACGGUAUGGUGAAGGCAUAGUCGAGGGAGGGGCGAAAGUCACACAAACCGG | 0.00539
16 | GUGCCUUGCGCCGGGAAACCACGCAAGGGAUGGUGUCAAAUUCGGCGAAACCUAAGCGCCCGCCCGGGCGUAUGGCAACGCCGAGCCAAGCUUCGGCGCCUGCGCCGAUGGAGGUGUAGAGACUAGACGGCACCCACCUAAGGCAAACGUUAUGGUGAAGGCAUAGUCGAGGGAGAGGCGAAAGUCACACAAACCGG | 0.0243
17 | GUGCCUUGCGCCGGGAAACCACGCAAGGGAUGGUGUCAAAUUCGGCGAAACCUAAGCGCCCGCCCGGGCGUAUGGCAACGCCGAGCCAAGCUUCGGCGCCUGCGCCGAUGGAGGUGUAGAGACUAGACGGCACCCACCUAAGGCAAACGAUAUGGUGAAGGCAUAGUCUAGGGAGAGGCGAAAGUCACACAAACCGG | 0.0199
18 | GUGCCUUGCGCCGGGAAACCACGCAAGGGAUGGUGUCAAAUUCGGCGAAACCUAAGCGCCCGCCCGGGCGUAUGGCAACGCCGAGCCAAGCUUCGGCGCCUGCGCCGAUGGAGGUGUAGAGACUAGACGGCACCCACCUAAGGCAAACGAUAUGGUGAAGGCAUAGUCUAGGGAGGGGCGAAAGUCACACAAACCGG | 0.00628
19 | GUGCCUUGCGCCGGGAAACCACGCAAGGGAUGGUGUCAAAUUCGGCGAAACCUAAGCGCCCGCCCGGGCGUAUGGCAACGCCGAGCCAAGCUUCGGCGCCUGCGCCGAUGGAGGUGUAGAGACUAGACGGCACCCACCUAAGGCAAACGAUAUGGUGAAGGCAUAGUCUAGGGAGCGGCGAAAGUCACACAAACCGG | 0.0264
20 | GUGCCUUGCGCCGGGAAACCACGCAAGGGAUGGUGUCAAAUUCGGCGAAACCUAAGCGCCCGCCCGGGCGUAUGGCAACGCCGAGCCAAGCUUCGGCGCCUGCGCCGAUGGAGGUGUAGAGACUAGACGGCACCCACCUAAGGCAAACGGUAUGGUGAAGGCAUAGUCCAGGGAGAGGCGAAAGUCACACAAACCGG | 0.0982
21 | GUGCCUUGCGCCGGGAAACCACGCAAGGGAUGGUGUCAAAUUCGGCGAAACCUAAGCGCCCGCCCGGGCGUAUGGCAACGCCGAGCCAAGCUUCGGCGCCUGCGCCGAUGGAGGUGUAGAGACUAGACGGCACCCACCUAAGGCAAACGGUAUGGUGAAGGCAUAGUCCAGGGAGCGGCGAAAGUCACACAAACCGG | 0.166
22 | GUGCCUUGCGCCGGGAAACCACGCAAGGGAUGGUGUCAAAUUCGGCGAAACCUAAGCGCCCGCCCGGGCGUAUGGCAACGCCGAGCCAAGCUUCGGCGCCUGCGCCGAUGGAGGUGUAGAGACUAGACGGCACCCACCUAAGGCAAACGGUAUGGUGAAGGCAUAGUCCAGGGAGGGGCGAAAGUCACACAAACCGG | 0.0168
23 | GUGCCUUGCGCCGGGAAACCACGCAAGGGAUGGUGUCAAAUUCGGCGAAACCUAAGCGCCCGCCCGGGCGUAUGGCAACGCCGAGCCAAGCUUCGGCGCCUGCGCCGAUGGAGGUGUAGAGACUAGACGGCACCCACCUAAGGCAAACGGUAUGGUGAAGGCAUAGUCUAGGGAGAGGCGAAAGUCACACAAACCGG | 0.00683
24 | GUGCCUUGCGCCGGGAAACCACGCAAGGGAUGGUGUCAAAUUCGGCGAAACCUAAGCGCCCGCCCGGGCGUAUGGCAACGCCGAGCCAAGCUUCGGCGCCUGCGCCGAUGGAGGUGUAGAGACUAGACGGCACCCACCUAAGGCAAACGGUAUGGUGAAGGCAUAGUCUAGGGAGCGGCGAAAGUCACACAAACCGG | 0.0163
25 | GUGCCUUGCGCCGGGAAACCACGCAAGGGAUGGUGUCAAAUUCGGCGAAACCUAAGCGCCCGCCCGGGCGUAUGGCAACGCCGAGCCAAGCUUCGGCGCCUGCGCCGAUGGAGGUGUAGAGACUAGACGGCACCCACCUAAGGCAAACGGUAUGGUGAAGGCAUAGUCUAGGGAGGGGCGAAAGUCACACAAACCGG | 0.00532
26 | GUGCCUUGCGCCGGGAAACCACGCAAGGGAUGGUGUCAAAUUCGGCGAAACCUAAGCGCCCGCCCGGGCGUAUGGCAACGCCGAGCCAAGCUUCGGCGCCUGCGCCGAUGGAGGUGUAGAGACUAGACGGCACCCACCUAAGGCAAACGUUAUGGUGAAGGCAUAGUCAAGGGAGCGGCGAAAGUCACACAAACCGG | 0.0193
27 | GUGCCUUGCGCCGGGAAACCACGCAAGGGAUGGUGUCAAAUUCGGCGAAACCUAAGCGCCCGCCCGGGCGUAUGGCAACGCCGAGCCAAGCUUCGGCGCCUGCGCCGAUGGAGGUGUAGAGACUAGACGGCACCCACCUAAGGCAAACGUUAUGGUGAAGGCAUAGUCAAGGGAGGGGCGAAAGUCACACAAACCGG | 0.00554
28 | GUGCCUUGCGCCGGGAAACCACGCAAGGGAUGGUGUCAAAUUCGGCGAAACCUAAGCGCCCGCCCGGGCGUAUGGCAACGCCGAGCCAAGCUUCGGCGCCUGCGCCGAUGGAGGUGUAGAGACUAGACGGCACCCACCUAAGGCAAACGUUAUGGUGAAGGCAUAGUCAAGGGAGAGGCGAAAGUCACACAAACCGG | 0.0169
29 | GUGCCUUGCGCCGGGAAACCACGCAAGGGAUGGUGUCAAAUUCGGCGAAACCUAAGCGCCCGCCCGGGCGUAUGGCAACGCCGAGCCAAGCUUCGGCGCCUGCGCCGAUGGAGGUGUAGAGACUAGACGGCACCCACCUAAGGCAAACGUUAUGGUGAAGGCAUAGUCAAGGGAGUGGCGAAAGUCACACAAACCGG | 0.0299
30 | GUGCCUUGCGCCGGGAAACCACGCAAGGGAUGGUGUCAAAUUCGGCGAAACCUAAGCGCCCGCCCGGGCGUAUGGCAACGCCGAGCCAAGCUUCGGCGCCUGCGCCGAUGGAGGUGUAGAGACUAGACGGCACCCACCUAAGGCAAACGUUAUGGUGAAGGCAUAGUCGAGGGAGUGGCGAAAGUCACACAAACCGG | 0.0695
